The target in this test is elastase enzyme. As to the kind of experiment: cell-based or functional assay.

Regarding Ac-ALHKVK-NH2 [Ac-Ala-Leu-His-Lys-Val-Lys-NH2], the “percentage of elastase inhibition with regard to the positive control (PMSF = 100%), absorbance at 405 nm” value was ~39 % of positive control.

The record behind these values is US20220062145A1 (LIPOTRUE S L, published 2022).
